Experimental data from patent US20150196637A1.
Read-outs that look alike come from different tables or passages of the source.

Experiments:
[1] = target: IgG1 heavy chain with CH3 construct 67 (K360D) and common light chain (human) [IgG part: P01857]
[2] = target: IgG1 heavy chain with CH3 construct 8 (Q347K) and common light chain (human) [IgG part: P01857]
[3] = target: IgG1 heavy chain with CH3 construct 64 (T366D) and common light chain (human) [IgG part: P01857]
[4] = target: IgG1 heavy chain with CH3 construct 61 (L351K) and common light chain (human) [IgG part: P01857]
[5] = target: IgG1 heavy chain with CH3 construct 2 (K392D, K409D) and common light chain (human) [IgG part: P01857]; experiment: native MS, transfection #11 of Table 24; fibrinogen VH on construct 1 with fibrinogen VH on construct 2
[6] = target: IgG1 heavy chain with CH3 construct 2 (K392D, K409D) and common light chain (human) [IgG part: P01857]

IgG1 heavy chain with CH3 construct 8 (Q347K) and common light chain (from UniProt P01857-1)
AC found (%) [1]: 41%
AA found (%) [2]: 34%

IgG1 heavy chain with CH3 construct 61 (L351K) and common light chain (from UniProt P01857-1)
AC found (%) [3]: 52%
AA found (%) [4]: 30%

IgG1 heavy chain with CH3 construct 1 (E356K, D399K) and common light chain (from UniProt P01857-1)
% of the mixture (peak height) [5]: 61%
% of the mixture (peak height) [6]: 67%
